One protein from US20110289632 can be followed below.

In this series the target is 3-ketomyristoyl-ACP (enzymatically prepared from ShACP).

B1: ShMKS1 (methylketone synthase 1 from Solanum habrochaites f glabratum), recombinant, His-tagged (protein)
chain: MEKSMSPFVKKHFVLVHTAFHGAWCWYKIVALMRSSGHNVTALDLGASGINPKQALQIPNFSDYLSPLMEFMASLPANEKIILVGHALGGLAISKAMETFPEKISVAVFLSGLMPGPNIDATTVCTKAGSAVLGQLDNCVTYENGPTNPPTTLIAGPKFLATNVYHLSPIEDLALATALVRPLYLYLAEDISKEVVLSSKRYGSVKRVFIVATENDALKKEFLKLMIEKNPPDEVKEIEGSDHVTMMSKPQQLFTTLLSIANKYK
With B1, the “amount of 2-tridecanone formed (in vitro thioesterase activity assay, direct hexane extraction, GC-MS)” value is “slightly higher, but not significantly so (t test, p=0.062, α=0.05), than the amount found in the buffer-incubated sample treated with acid and heat”.
